Where a chain is given by its changes, count along the chain named.
B1: pol30-Msh6E6: PCNA mutant evolved for Msh6, IDCL sequence DYDKDLLKIIEL (protein)
chain: MLEAKFEEASLFKRIIDGFKDCVQLVNFQCKEDGIIAQAVDDSRVLLVSLEIGVEAFQEYRCDHPVTLGMDLTSLSKILRCGNNTDTLTLIADNTPDSIILLFEDTKKDRIAEYSLKLMDYDKDLLKIIELQYDSTLSLPSSEFSKIVRDLSQLSDSINIMITKETIKFVADGDIGSGSVIIKPFVDMEHPETSIKLEMDQPVDLTFGAKYLLDIIKGSSLSDRVGIRLSSEAPALFQFDLKSGFLQFFLAPKFNDEE
modifications: left off: Gal4 activation domain, end not stated, kept
B2: pol30-Rad30E2: PCNA mutant evolved for Rad30, IDCL sequence DDDWDFLKILEL (protein)
chain: B1 chain with Y121D, K123W, L125F, I129L
modifications: left off: Gal4 activation domain, end not stated, kept
B3: pol30-Pol32E9 (protein)
chain: B1 chain with Y121N, K123V, L125S
modifications: left off: Gal4 activation domain, end not stated, kept
B4: pol30-79: previously studied PCNA mutant with decreased partner binding, IDCL sequence DIDADFAKAEEL (protein)
chain: B1 chain with Y121I, K123A, L125F, L126A, I128A, I129E
modifications: left off: Gal4 activation domain, end not stated, kept
B5: pol30-Msh6E2: PCNA mutant evolved for Msh6, IDCL sequence DYDRDMLKISEL (protein)
chain: B1 chain with K123R, L125M, I129S
modifications: left off: Gal4 activation domain, end not stated, kept

Key:
CAN1 gene = test: Spontaneous mutation rate, CAN1 reporter assay, fluctuation analysis; type: cell-based, yeast; conditions: for Spontaneous Mutation Rate Can^R (Fold Increase): Table 1, compared to the WT POL30 strain
Description: It was previously shown that PCNA contains another site of regulation (i.e. K164) that is modulated by ubiquitination or SUMOylation (Figure 1B) and that is crucial for the recruitment of TLS polymerases,[37]. To test whether the K164 regulatory site is active in the PCNA mutant strains, we examined the spontaneous mutation rate in these strains (Table 1). Increase in spontaneous mutation rate can indicate the recruitment of TLS polymerases to PCNA through K164 ubiquitination,[37]. Alternatively, these mutants can indirectly affect the spontaneous mutation rate by reducing DNA replication processivity and causing replication fork stalling, thereby leading to TLS recruitment. These mutants can also indirectly alter Pol-δ or Pol-ε proofreading leading to TLS recruitment. We measured the spontaneous mutation rate using the CAN1 reporter assay by monitoring the ability of the PCNA mutant strains to grow in the presence of canavanine, a toxic analogue of arginine. […] To examine whether Polζ, the major TLS polymerase,[37], is recruited in vivo to PCNA mutants showing increased affinity for Rad27 and Pol32 (pol30-Rad27E6 and pol30-Pol32E5, Table 1) upon K164 ubiquitination, we measured the spontaneous mutation rates of these mutant strains on the background of either mutated rev3 encoding the catalytic subunit of Polζ or mutated rad18 encoding the K164 ubiquitin ligase or K164R mutation (Figure 7, Table 2).
(§1) Novel haploids containing PCNA mutants were generated using the plasmid shuffling method. Briefly, a pol30::KanMX magic marker heterozygote diploid strain BY4743 (Open Biosystem) was transformed with plasmid pRS316-POL30. Following dissection of the diploid, a haploid containing the CAN+ gene and plasmid pRS316-POL30 as a sole source of PCNA was generated. This host strain was transformed with selected pRS315-pol30 mutants, plated on SC-Ura-Leu plates, followed by replica plating to SC-Leu+5FOA plates. Haploids, containing PCNA mutants as a sole source, were further verified by plating on either SC-Leu or SC-Ura plates. For testing selected PCNA mutants, a haploid containing rad27::HYG, rad30::HYG, pol32::HYG, msh6::HYG, or ung1::HYG were generated using plasmid pAG32 by conventional genetic approaches. Growth of the PCNA mutant strains in the presence of 120 mM HU (Toronto Research Chemicals) or 0.02% MMS (Sigma) was performed as described. To examine the effects of partner overexpression on pol30 mutant strains, these strains were transformed with various plasmids containing GST-tagged PCNA partner encoding genes under the control of a GAL1/10 inducible promoter, as previously described. Overnight cultures were plated in serial dilutions on SC-Ura containing either glucose or galactose with or without DNA-damaging agents, as described above.
The mutation rates for the different pol30 mutant strains described in this study were determined by fluctuation test analysis using the Lea and Coulson method,[48]. The different strains were plated as single colonies on SC-Leu plates and allowed to grow for 3 d at 30°C. At least 25 single colonies from each strain were excised from the plate and resuspended in 1 ml of sterile water to an O.D600 of 0.7. Appropriate dilutions of the cells were then plated on SC-Leu and SC-Leu-Arg+canavanine ([…]) to obtain the number of viable cells (Nt) and the number of canavanine-resistant cells (r), respectively. Using the Lea and Coulson method, the number of mutations (m) per colony was derived from the number of canavanine resistant-colonies (r) across parallel cultures, using the following equation: […]. The m values were then used to calculate the mutation rate, M, using the following equation: M = m/Nt, where Nt is the average number of viable cells per plating. The different M values were sorted to obtain the median. […]

Rad27 = test: Yeast two hybrid (Y2H) analysis of PCNA-partner interaction; type: binding; conditions: for Binding of PCNA Mutants to Target Partners: Rad27, fold increase or decrease (quantitative Y2H): footnote c: generation time in liquid selective media lacking histidine relative to cells expressing WT PCNA, average of at least 3 independent experiments
Protocol: (§2) For the Y2H assay, we used the YRG2 host strain, shown to be highly efficient in coupling the strength of protein-protein interactions with growth on media lacking histidine. Selected PCNA mutants were characterized for their ability to bind each of 12 main PCNA partners to obtain specificity profiles (Table 1, Table S1, and Figures S4–S5). […] However, in some cases a strong trade-off between the bindings of different partners was observed.
(§3) Y2H analysis was performed using the Yeast Two Hybrid Phagemid vector kit (Stratagene), following the manufacturer's instructions. The pAD-PCNA-WT/mutant plasmids were used as bait while plasmids encoding 12 different PCNA partners (Table 1 and Table S1) were used as prey. The YRG2 host strain (Stratagene) was cotransformed with pAD-PCNA WT/mutant and pBD-partner plasmids in all possible combinations using the LiAC method. Single transformants were grown in liquid SC-Leu-Trp to O.D600 10, washed twice with DDW, and diluted to an initial OD600 of 0.3. A series of 10-fold serial dilutions was then spotted onto selective SC-Leu-Trp-His plates and incubated at 30°C for 3 d. For quantitative Y2H, the generation time of the indicated mutants and their respective partners were calculated from their growth curves in liquid SC-Leu-Trp-His media. Cells were grown overnight in SC-Leu-Trp, washed twice with ddH2O, and diluted by a factor of 1∶50 into 10 ml of pre-warmed SC-Leu-Trp-His. O.D600 measurements of the cultures were taken at the indicated time; the generation time (τ) was calculated from the growth curves according to the equation ODt = OD0×2^t/τ. The generation time calculated for each culture is an average of at least 3 independent experiments.

Ung1 = test: as above; type: binding; conditions: for Binding of PCNA Mutants to Target Partners: Ung1 (Y2H): YRG2 strain, growth on selective agar plates lacking histidine, growth similar to WT PCNA denoted as 1
Protocol: as §2, §3

Msh6 = test: as above; type: binding; conditions: for Binding of PCNA Mutants to Target Partners: Msh6 (Y2H): YRG2 strain, growth on selective agar plates lacking histidine, growth similar to WT PCNA denoted as 1; for Binding of PCNA Mutants to Target Partners: Msh6, fold increase or decrease (quantitative Y2H): footnote c: generation time in liquid selective media lacking histidine relative to cells expressing WT PCNA, average of at least 3 independent experiments
Protocol: as §2, §3

Pol32 = test: as above; type: binding; conditions: for Binding of PCNA Mutants to Target Partners: Pol32 (Y2H): YRG2 strain, growth on selective agar plates lacking histidine, growth similar to WT PCNA denoted as 1; for Binding of PCNA Mutants to Target Partners: Pol32, fold increase or decrease (quantitative Y2H): footnote c: generation time in liquid selective media lacking histidine relative to cells expressing WT PCNA, average of at least 3 independent experiments
Protocol: as §2, §3

Rad30 = test: as above; type: binding; conditions: for Binding of PCNA Mutants to Target Partners: Rad30 (Y2H): YRG2 strain, growth on selective agar plates lacking histidine, growth similar to WT PCNA denoted as 1; for Binding of PCNA Mutants to Target Partners: Rad30, fold increase or decrease (quantitative Y2H): footnote c: generation time in liquid selective media lacking histidine relative to cells expressing WT PCNA, average of at least 3 independent experiments
Protocol: as §2, §3

yeast strains = test: Growth sensitivity of PCNA mutant strains to MMS and HU; type: cell-based; conditions: for effect of overexpression of Rad27, Rad30, Pol32, and Msh6 on growth sensitivity to DNA damaging agents: Figure S9, GAL1/10 inducible GST-tagged partners; for effect of rad27 deletion on growth sensitivity of the mutant strain: Figure S8, parent vs rad27-deleted strains
Description: Next, we examined the sensitivity of strains containing single deletions of each of the five different partners on a WT PCNA background. […] We first examined whether the rad27 deletion can suppress the lethality of a strain containing the pol30-Rad27L1 or pol30-Rad27L2 mutants (Figure 6A). […] In addition, we examined whether rad30 deletion, ung1 deletion, and msh6 deletion can suppress the phenotypes of the pol30 mutants with increased affinity to Rad30, Ung1, and Msh6, respectively (Figure 6B–D). […] However, since the suppression of the strain phenotypes was not complete, additional factors, such as minor effects of the mutations on other PCNA-partner interactions, may play a partial role in the sensitivity phenotype of the examined pol30 mutants. […] We also examined whether overexpression of different partners can suppress the growth sensitivity of the pol30 mutants, however no suppression was observed (Figure S9).
as §1

Molecule	Fold Increase Relative to WT (mutation rate, CAN1 locus) (CAN1 gene; Table 2) [fold]	Mutation Rate (CAN1 locus) (CAN1 gene; Table 2, median, brackets = 95% confidence interval, at least 25 independent determinations)	Binding of PCNA Mutants to Target Partners: Rad27 (Y2H) (Rad27; YRG2 strain, growth on selective agar plates lacking histidine, growth similar to WT PCNA denoted as 1)	Binding of PCNA Mutants to Target Partners: Ung1 (Y2H) (Ung1)	Binding of PCNA Mutants to Target Partners: Msh6 (Y2H) (Msh6)	Binding of PCNA Mutants to Target Partners: Pol32 (Y2H) (Pol32)	Binding of PCNA Mutants to Target Partners: Rad30 (Y2H) (Rad30)	effect of overexpression of Rad27, Rad30, Pol32, and Msh6 on growth sensitivity to DNA damaging agents (yeast strains)	Spontaneous Mutation Rate Can^R (Fold Increase) (CAN1 gene) [fold]	Binding of PCNA Mutants to Target Partners: Msh6, fold increase or decrease (quantitative Y2H) (Msh6)	Binding of PCNA Mutants to Target Partners: Rad27, fold increase or decrease (quantitative Y2H) (Rad27)	Binding of PCNA Mutants to Target Partners: Pol32, fold increase or decrease (quantitative Y2H) (Pol32)	Binding of PCNA Mutants to Target Partners: Rad30, fold increase or decrease (quantitative Y2H) (Rad30)	effect of rad30 deletion on strain growth sensitivity phenotype (yeast strains; Figure 6B)	effect of rad27 deletion on growth sensitivity of the mutant strain (yeast strains)	Binding of PCNA Mutants to Target Partners: Ung1, fold increase or decrease (quantitative Y2H) (Ung1; footnote c: generation time in liquid selective media lacking histidine relative to cells expressing WT PCNA, average of at least 3 independent experiments)	effect of msh6 deletion on spontaneous mutation rate (CAN1 gene; Figure 6D)
POL30: wild-type yeast PCNA (POL30), IDCL sequence DIDADFLKIEEL	1	1.5×10^−7 [1.5, 2.2]	1	1	1	1	1	did not reduce the growth sensitivity	–	–	–	–	–	–	–	–	–
B1	–	–	–	1	–	1	1	–	4.1	1.4 fold	–	–	–	–	–	–	–
B2	–	–	–	1	1	–	–	–	10	–	0.4 ^c fold	0.4 ^c fold	1.4 ^c fold	suppression	suppression of the growth sensitivity	–	–
B3	–	–	–	1	1	–	1	–	4	–	–	1.3 fold	–	–	–	–	–
B4	–	–	–	–	–	–	–	did not reduce the growth sensitivity	2.2	0.4 ^c fold	0.5 ^c fold	0.3 ^c fold	0.4 ^c fold	–	–	0.3 ^c fold	–
B5	–	–	–	1	–	1	1	–	7.3	1.4 ^c fold	–	–	–	–	only weak effect	–	Suppression

From PMC2953525, “Subtle Alterations in PCNA-Partner Interactions Severely Impair DNA Replication and Repair” (PLoS Biology, 2010)
